From article PMC10397247 come the findings set out here.

One test addresses T1, P2-AA-1HAA-E.
T1 chain: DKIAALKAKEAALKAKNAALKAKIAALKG
The experiment in a line: two-hybrid library CCmax.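 Further: natural log of median RNA to DNA barcode read ratio; higher means stronger binding.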 The conditions noted are these: mean of both orientations.

A further test addresses T2, P2-AA-1HAA-I.
T2 chain: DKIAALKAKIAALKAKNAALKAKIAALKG
The experiment in a line: two-hybrid library CCmax.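 Further: natural log of median RNA to DNA barcode read ratio; higher means stronger binding.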 The conditions noted are these: mean of both orientations.

The next test addresses T3, P2-AA-1HAA-V.
T3 chain: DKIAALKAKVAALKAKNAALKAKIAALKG
Briefly: two-hybrid library CCmax.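 Further: natural log of median RNA to DNA barcode read ratio; higher means stronger binding.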 The conditions noted are these: mean of both orientations.

The next test deals with T4, P2-AA-1HAA-R.
T4 chain: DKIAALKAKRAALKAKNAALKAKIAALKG
The experiment in a line: two-hybrid library CCmax.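 Further: natural log of median RNA to DNA barcode read ratio; higher means stronger binding.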 To be noted: mean of both orientations.

The next test concerns the target T5, P2-AA-1HAA-S.
T5 chain: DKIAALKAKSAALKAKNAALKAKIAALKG
The experiment in a line: two-hybrid library CCmax. The conditions noted are these: mean of both orientations.

A further test deals with T6, P2-AA-1HAA-T.
T6 chain: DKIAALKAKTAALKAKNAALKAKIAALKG
The experiment in a line: two-hybrid library CCmax. The conditions noted are these: mean of both orientations.

In the next test the target is T7, P2-AA-1HAA-Y.
T7 chain: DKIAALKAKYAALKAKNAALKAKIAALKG
The experiment in a line: two-hybrid library CCmax. The conditions noted are these: mean of both orientations.

The next test has as its target T8, P2-AA.
T8 chain: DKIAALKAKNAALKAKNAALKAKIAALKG
Briefly: two-hybrid library CCmax. To be noted: mean of both orientations.

For the next test, the target named is T9, 4H2619-bN.
T9 chain: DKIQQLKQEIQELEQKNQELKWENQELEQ
The experiment in a line: two-hybrid library CCNG1.

For a further test, the target named is T10, 4H3632-bN.
T10 chain: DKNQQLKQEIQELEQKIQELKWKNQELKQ
Briefly: two-hybrid library CCNG1.

Another test has as its target T11, 4H3070-bN.
T11 chain: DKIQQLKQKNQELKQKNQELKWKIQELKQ
The experiment in a line: two-hybrid library CCNG1. The conditions noted are these: mean of both orientations.

Another test addresses T12, 4H145-bN.
T12 chain: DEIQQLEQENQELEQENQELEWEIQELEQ
The experiment in a line: two-hybrid library CCNG1. To be noted: mean of both orientations.

A further test deals with T13, 4H2691-bN.
T13 chain: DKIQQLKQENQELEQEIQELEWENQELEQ
Briefly: two-hybrid library CCNG1.

The next test deals with T14, 4H496-bN.
T14 chain: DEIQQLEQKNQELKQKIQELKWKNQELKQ
The experiment in a line: two-hybrid library CCNG1.

The target of another test is T15, 4H342-bN.
T15 chain: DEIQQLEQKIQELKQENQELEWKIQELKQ
Briefly: two-hybrid library CCNG1.

The target of a further test is T16, P8A-bP.
T16 chain: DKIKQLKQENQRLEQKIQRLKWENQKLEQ
Briefly: two-hybrid library CCNG1.

A further test deals with T17, P6A-bP.
T17 chain: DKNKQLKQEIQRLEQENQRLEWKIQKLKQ
Briefly: two-hybrid library CCNG1.

The next test has as its target T18, P1A-bP.
T18 chain: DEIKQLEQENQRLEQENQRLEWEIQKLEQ
Briefly: two-hybrid library CCNG1.

A further test has as its target T19, P3A-bP.
T19 chain: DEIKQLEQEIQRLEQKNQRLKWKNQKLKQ
Briefly: two-hybrid library CCNG1.

A further test addresses T20, P7A-bP.
T20 chain: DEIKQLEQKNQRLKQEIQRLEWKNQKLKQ
Briefly: two-hybrid library CCNG1.

A further test has as its target T21, P2A-bP.
T21 chain: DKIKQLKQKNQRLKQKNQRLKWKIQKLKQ
The experiment in a line: two-hybrid library CCNG1.

Another test concerns the target T22, P4A-bP.
T22 chain: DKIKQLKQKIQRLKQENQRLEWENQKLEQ
The experiment in a line: two-hybrid library CCNG1.

Another test addresses T23, P5A-bP.
T23 chain: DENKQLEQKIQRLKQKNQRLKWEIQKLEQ
Briefly: two-hybrid library CCNG1.

A further test deals with T24, P11A-bP.
T24 chain: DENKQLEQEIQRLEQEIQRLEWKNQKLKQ
Briefly: two-hybrid library CCNG1.

Another test deals with T25, P12A-bP.
T25 chain: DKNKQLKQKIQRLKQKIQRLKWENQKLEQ
The experiment in a line: two-hybrid library CCNG1.

The target of a further test is T26, P9A-bP.
T26 chain: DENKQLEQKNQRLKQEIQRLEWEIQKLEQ
Briefly: two-hybrid library CCNG1.

A further test has as its target T27, P2-AA-1HAA-D.
T27 chain: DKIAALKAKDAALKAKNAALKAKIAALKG
The experiment in a line: two-hybrid library CCmax. The conditions noted are these: mean of both orientations.

The target of another test is T28, P2-AA-1HAA-K.
T28 chain: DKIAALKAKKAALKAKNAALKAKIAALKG
Briefly: two-hybrid library CCmax. To be noted: mean of both orientations.

For DEIAALEAEIAALEAENAALEAEIAALEG [P1-AA-1HAA-I], the interaction score stood at 1.82 with P2-AA-1HAA-E; 2.11 in the test with P2-AA-1HAA-I; 1.69 in the test with P2-AA-1HAA-V; 2.06 with P2-AA-1HAA-R; 2.03 in the test with P2-AA-1HAA-S; 1.91 with P2-AA-1HAA-T. The interaction score came to 2.08 in the test with P2-AA-1HAA-Y and 2.21 with P2-AA.

As for DEIQQLEQENQELEQENQELEWEIQELEQ [4H145-bN], the interaction score is -0.87 in the test with 4H2619-bN; -1.49 with 4H3632-bN; 2.01 in the test with 4H3070-bN; -0.563 with 4H145-bN; -1.25 in the test with 4H2691-bN; -0.916 with 4H496-bN. Besides, the interaction score with 4H342-bN was -2.65.

As to DKNKQLKQENQRLEQKIQRLKWKIQKLKQ [P10A-bP], the interaction score with P8A-bP was -1.35; with P6A-bP it was -0.83; with P1A-bP it was 0.96; with P3A-bP, -0.806; with P7A-bP, -1.19; with P2A-bP, -1.7. The interaction score with P4A-bP was -0.87; in the test with P5A-bP, -1.01; with P11A-bP, 1.25; with P12A-bP, -1.01.

For the molecule DENKQLEQEIQRLEQEIQRLEWKNQKLKQ [P11A-bP], the interaction score is 0.853 with P9A-bP; 0.201 with P8A-bP; 0 with P6A-bP; -0.431 with P1A-bP; -2.11 with P3A-bP; -2.06 with P7A-bP. Besides, the interaction score is -0.486 with P2A-bP; -0.08 with P4A-bP; -0.091 with P5A-bP; -0.677 with P11A-bP; 1.42 in the test with P12A-bP.

Consider DEIAALEAERAALEAENAALEAEIAALEG [P1-AA-1HAA-R], for which the interaction score with P2-AA-1HAA-E is 0.63; with P2-AA-1HAA-I, 1.99; in the test with P2-AA-1HAA-D, 0.454; in the test with P2-AA-1HAA-V it was 2.29; with P2-AA-1HAA-R, 1.34; with P2-AA-1HAA-S, 1.28. The interaction score with P2-AA-1HAA-T was determined as 1.95; with P2-AA-1HAA-Y it was 1.63; with P2-AA-1HAA-K, 0.734; with P2-AA, 1.76.
